{
  "source": "paper PMC5741177",
  "binders": {"B1": {"name": "TMR-GTCAT (dsDNA)", "DNA 1": "CGCGTCATAATTGAGAGCGC", "DNA 2": "GCGCTCTCAATTATGACGCG"}, "B2": {"name": "MUT (dsDNA)", "DNA 1": "CGCGTGATAATTGAGAGCGC", "DNA 2": "GCGCTCTCAATTATCACGCG"}, "B3": {"name": "GTCAT (dsDNA)", "DNA 1": "CGCGTCATAATTGAGAGCGC", "DNA 2": "GCGCTCTCAATTATGACGCG"}, "B4": {"name": "AP-1 (dsDNA)", "DNA 1": "TGGAGATGACGTCATCTCGT", "DNA 2": "ACGAGATGACGTCATCTCCA"}},
  "key": {"brHis2 [1]": {"biological_target": "T1, brHis2 (UniProt P03069, L230H;R234H)", "T1 chain": "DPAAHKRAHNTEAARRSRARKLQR", "test": "fluorescence anisotropy"}, "brHis2 [2]": {"biological_target": "T1, brHis2", "test": "EMSA"}, "br": {"biological_target": "T2, br (UniProt P03069)", "T2 chain": "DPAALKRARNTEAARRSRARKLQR", "test": "EMSA"}, "brHis": {"biological_target": "T3, brHis (UniProt P03069, R234H)", "T3 chain": "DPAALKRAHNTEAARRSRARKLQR", "test": "EMSA"}, "br2(SS)": {"biological_target": "T4, br2(SS) (UniProt P03069 226-248+=GGC, internal_change)", "T4 chain": "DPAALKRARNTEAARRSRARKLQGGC", "test": "EMSA"}, "brHis2 [3]": {"biological_target": "T1, brHis2", "test": "EMSA"}},
  "note": "Like-named read-outs stand apart in the source and are kept apart here.",
  "data": [
    {"binder": "B1", "values": [
      {"measurement": "Kd", "setting": "brHis2 [1]", "result": "~24", "unit": "nM"}
    ]},
    {"binder": "B2", "values": [
      {"measurement": "binding result", "setting": "brHis2 [2]", "result": "no binding"}
    ]},
    {"binder": "B3", "values": [
      {"measurement": "binding result", "setting": "br", "result": "no binding"},
      {"measurement": "binding result", "setting": "brHis", "result": "no binding"}
    ]},
    {"binder": "B4", "values": [
      {"measurement": "binding result", "setting": "br2(SS)", "result": "binds"},
      {"measurement": "binding result", "setting": "brHis2 [3]", "result": "binds"}
    ]}
  ]
}
